Measured values from patent US20180044374A1.
“And” between values parts separate entries of the source, which are not always exact repeats. Equal entries are not always repeated.

Tests used:
[1] = molecular target: human polyclonal IgG (Gammanorm) (human); test: dynamic binding capacity; matrix A38, ligand 7.45 mg/ml
[2] = molecular target: human polyclonal IgG (Gammanorm) (human); test: dynamic binding capacity; matrix A63a, ligand 14.0 mg/ml
[3] = molecular target: human polyclonal IgG (Gammanorm) (human); test: dynamic binding capacity; matrix C1, ligand […]
[4] = molecular target: human polyclonal IgG (Gammanorm) (human); test: dynamic binding capacity; matrix A32, ligand 13.3 mg/ml
[5] = molecular target: human polyclonal IgG (Gammanorm) (human); test: dynamic binding capacity; matrix A38, ligand 11.3 mg/ml
[6] = molecular target: human polyclonal IgG (Gammanorm) (human); test: dynamic binding capacity; matrix A39, ligand 7.0 mg/ml
[7] = molecular target: human polyclonal IgG (Gammanorm) (human); test: dynamic binding capacity; matrix A65b, ligand […]
[8] = molecular target: human polyclonal IgG (Gammanorm) (human); test: dynamic binding capacity; matrix A41, ligand 8.83 mg/ml
[9] = molecular target: human polyclonal IgG (Gammanorm) (human); test: dynamic binding capacity; matrix A63a, ligand 6.1 mg/ml
[10] = molecular target: human polyclonal IgG (Gammanorm) (human); test: dynamic binding capacity; matrix A33, ligand 7.33 mg/ml
[11] = molecular target: human polyclonal IgG (Gammanorm) (human); test: dynamic binding capacity; matrix I1, ligand 6.1 mg/ml
[12] = molecular target: human polyclonal IgG (Gammanorm) (human); test: dynamic binding capacity; matrix H40, ligand 9.1 mg/ml
[13] = molecular target: human polyclonal IgG (Gammanorm) (human); test: dynamic binding capacity; matrix C3, ligand […]; conditions: ligand content 5.9 mg/ml
[14] = molecular target: human polyclonal IgG (Gammanorm) (human); test: dynamic binding capacity; matrix A62a, ligand 6.6 mg/ml
[15] = molecular target: human polyclonal IgG (Gammanorm) (human); test: dynamic binding capacity; matrix A38, ligand 7.5 mg/ml
[16] = molecular target: human polyclonal IgG (Gammanorm) (human); test: dynamic binding capacity; matrix A63a, ligand 6.6 mg/ml
[17] = molecular target: human polyclonal IgG (Gammanorm) (human); test: dynamic binding capacity; matrix A28, ligand 11.9 mg/ml
[18] = molecular target: human polyclonal IgG (Gammanorm) (human); test: dynamic binding capacity; ligand 13 mg/ml, before 1 M NaOH
[19] = molecular target: human polyclonal IgG (Gammanorm) (human); test: dynamic binding capacity; matrix H40, ligand […]
[20] = molecular target: human polyclonal IgG (Gammanorm) (human); test: dynamic binding capacity; matrix A39, ligand 6.96 mg/ml
[21] = molecular target: human polyclonal IgG (Gammanorm) (human); test: dynamic binding capacity; matrix C1, ligand 10.8 mg/ml
[22] = molecular target: human polyclonal IgG (Gammanorm) (human); test: dynamic binding capacity; matrix A28, ligand 7.9 mg/ml
[23] = molecular target: human polyclonal IgG (Gammanorm) (human); test: dynamic binding capacity; matrix A40, ligand 6.1 mg/ml
[24] = molecular target: human polyclonal IgG (Gammanorm) (human); test: dynamic binding capacity; matrix A62a, ligand 9.7 mg/ml
[25] = molecular target: human polyclonal IgG (Gammanorm) (human); test: dynamic binding capacity; matrix A18, ligand 8.2 mg/ml
[26] = molecular target: human polyclonal IgG (Gammanorm) (human); test: dynamic binding capacity; matrix A40, ligand 11.03 mg/ml
[27] = molecular target: human polyclonal IgG (Gammanorm) (human); test: dynamic binding capacity; matrix A43, ligand 6.99 mg/ml
[28] = molecular target: human polyclonal IgG (Gammanorm) (human); test: dynamic binding capacity; matrix A29, ligand 11 mg/ml
[29] = molecular target: human polyclonal IgG (Gammanorm) (human); test: dynamic binding capacity; matrix A65a, ligand 13.6 mg/ml
[30] = molecular target: human polyclonal IgG (Gammanorm) (human); test: dynamic binding capacity; matrix A20, ligand 10.6 mg/ml
[31] = molecular target: human polyclonal IgG (Gammanorm) (human); test: dynamic binding capacity; matrix A41, ligand 5.0 mg/ml
[32] = molecular target: human polyclonal IgG (Gammanorm) (human); test: dynamic binding capacity; matrix A65b, ligand 8.8 mg/ml
[33] = molecular target: human polyclonal IgG (Gammanorm) (human); test: dynamic binding capacity; matrix A27, ligand […]
[34] = molecular target: human polyclonal IgG (Gammanorm) (human); test: dynamic binding capacity; matrix A20, ligand 7.3 mg/ml
[35] = molecular target: human polyclonal IgG (Gammanorm) (human); test: dynamic binding capacity; matrix A40, ligand 13.15 mg/ml
[36] = molecular target: human polyclonal IgG (Gammanorm) (human); test: dynamic binding capacity; matrix A20, ligand […]
[37] = molecular target: human polyclonal IgG (Gammanorm) (human); test: dynamic binding capacity; matrix A65a, ligand 6.6 mg/ml

Substance: Zvar(Q9A, N11E, Q40V, A42K, N43A, L44I)4 (designed binder)
- Qb10% 2.4 min [1]: 44.4 mg/mL
- Qb10% 6 min [1]: 58.2 mg/mL
- Qb10% 2.4 min [2]: 48 mg/mL
- Qb10% 6 min [2]: 56 mg/mL
- Qb10% 2.4 min [3]: 38 mg/mL
- Qb10% 6 min [3]: 47 mg/mL
- Qb10% 2.4 min [4]: 37 mg/mL
- Qb10% 6 min [4]: 66 mg/mL
- Qb10% 2.4 min [5]: 48 mg/mL
- Qb10% 6 min [5]: 73 mg/mL
- Qb10% 2.4 min [6]: 42 mg/mL
- Qb10% 6 min [6]: 55 mg/mL
- Qb10% 2.4 min [7]: 42 mg/mL
- Qb10% 6 min [7]: 46 mg/mL
- Qb10% 2.4 min [8]: 38.5 mg/mL and 37.8 mg/mL and 35.1 mg/mL
- Qb10% 6 min [8]: 56.8 mg/mL and 58.6 mg/mL and 57.2 mg/mL
- Qb10% 2.4 min [9]: 39 mg/mL
- Qb10% 6 min [9]: 44 mg/mL
- Qb10% 2.4 min [10]: 48.7 mg/mL
- Qb10% 6 min [10]: 55.8 mg/mL
- Qb10% 2.4 min [11]: 45 mg/mL
- Qb10% 6 min [11]: 51 mg/mL
- Qb10% 2.4 min [12]: 52 mg/mL
- Qb10% 6 min [12]: 67 mg/mL
- Qb10% 2.4 min [13]: 44 mg/mL
- Qb10% 6 min [13]: 52 mg/mL
- Qb10% 2.4 min [14]: 41 mg/mL
- Qb10% 6 min [14]: 46 mg/mL
- Qb10% 2.4 min [15]: 44 mg/mL
- Qb10% 6 min [15]: 58 mg/mL
- Qb10% 2.4 min [16]: 40 mg/mL
- Qb10% 6 min [16]: 44 mg/mL
- Qb10% 2.4 min [17]: 39.9 mg/mL and 40 mg/mL
- Qb10% 6 min [17]: 63.8 mg/mL and 64 mg/mL
- Qb10%, 6 min, before incubation [18]: 79 mg/mL
- Qb10% 2.4 min [19]: 47 mg/mL
- Qb10% 6 min [19]: 52 mg/mL
- Qb10% 2.4 min [20]: 41.9 mg/mL
- Qb10% 6 min [20]: 54.7 mg/mL
- Qb10% 2.4 min [21]: 43 mg/mL
- Qb10% 6 min [21]: 60 mg/mL
- Qb10% 2.4 min [22]: 42.4 mg/mL and 42 mg/mL
- Qb10% 6 min [22]: 58.2 mg/mL and 58 mg/mL
- Qb10% 2.4 min [23]: 49 mg/mL
- Qb10% 6 min [23]: 59 mg/mL
- Qb10% 2.4 min [24]: 48 mg/mL
- Qb10% 6 min [24]: 60 mg/mL
- Qb10% 2.4 min [25]: 52 mg/mL
- Qb10% 6 min [25]: 59 mg/mL
- Qb10% 2.4 min [26]: 55 mg/mL
- Qb10% 6 min [26]: 73.8 mg/mL
- Qb10% 2.4 min [27]: 33.4 mg/mL
- Qb10% 6 min [27]: 49.8 mg/mL
- Qb10% 2.4 min [28]: 34.9 mg/mL
- Qb10% 6 min [28]: 64.7 mg/mL
- Qb10% 2.4 min [29]: 52 mg/mL
- Qb10% 6 min [29]: 61 mg/mL
- Qb10% 2.4 min [30]: 50.7 mg/mL and 51 mg/mL
- Qb10% 6 min [30]: 70.1 mg/mL and 70 mg/mL
- Qb10% 2.4 min [31]: 35.6 mg/mL
- Qb10% 6 min [31]: 46 mg/mL
- Qb10% 2.4 min [32]: 49 mg/mL
- Qb10% 6 min [32]: 56 mg/mL
- Qb10% 2.4 min [33]: 24.8 mg/mL
- Qb10% 6 min [33]: 55.6 mg/mL
- Qb10% 2.4 min [34]: 45 mg/mL and 45.1 mg/mL
- Qb10% 6 min [34]: 57 mg/mL and 57.2 mg/mL
- Qb10% 2.4 min [35]: 56.9 mg/mL
- Qb10% 6 min [35]: 71.1 mg/mL
- Qb10% 2.4 min [36]: 49 mg/mL
- Qb10% 6 min [36]: 67 mg/mL
- Qb10% 2.4 min [37]: 42 mg/mL
- Qb10% 6 min [37]: 47 mg/mL
